In patent US20120220489A1:
Blank lines part the entries; values can stand above or below the substance they belong to.

Assays:
[1] = target: pErk1/2-BSA 2.7x peptide-protein conjugate (human; bovine); test: RPA standard curve, assay 2, LOD back-calculated from one-site fit
[2] = target: Histone H3 recombinant protein, human, Upstate 14-494 (human) (UniProt P68431); test: RPA, competition: +free pErk1/2 peptide 100 nM
[3] = target: pErk1/2-BSA 2.7x peptide-protein conjugate (human; bovine); test: RPA, competition: +free pErk1/2 peptide 100 nM
[4] = target: pRb-BSA 1x peptide-protein conjugate (bovine); test: RPA, competition: +free pErk1/2 peptide 100 nM
[5] = target: Erk1-BSA 2.7x peptide-protein conjugate (human; bovine); test: RPA, competition: +free pErk1/2 peptide 100 nM
[6] = target: pRb recombinant protein, human, Active Motif 31 128 (human) (UniProt P06400); test: RPA, competition: +free pErk1/2 peptide 100 nM
[7] = target: ERK1 (p42) active (phospho), human, Active Motif 31 152 (human) (UniProt P27361); test: RPA, competition: +free pErk1/2 peptide 100 nM
[8] = target: Histone H3-BSA 2.7x peptide-protein conjugate (bovine); test: RPA, competition: +free pErk1/2 peptide 100 nM
[9] = target: ERK1 (p44) inactive (GST tagged), human, Invitrogen PV 3312 (human) (UniProt P27361); test: RPA, competition: +free pErk1/2 peptide 100 nM
[10] = target: ERK1 (p44), human, Cell Signaling Technology 7416 (human) (UniProt P27361); test: RPA, competition: +free pErk1/2 peptide 100 nM
[11] = target: ERK2 (p42), human, Biosource PHO 0104 (human) (UniProt P28482); test: RPA, competition: +free pErk1/2 peptide 100 nM
[12] = target: ERK1 (p44) active (GST tagged), human, Invitrogen PV 3311 (human) (UniProt P27361); test: RPA, competition: +free pErk1/2 peptide 100 nM
[13] = target: Histone H3 recombinant protein, calf, Roche 11 034 758 001 (calf) (UniProt P68432); test: RPA, competition: +free pErk1/2 peptide 100 nM
[14] = target: pErk1/2-BSA 2.7x peptide-protein conjugate (human; bovine); test: RPA standard curves, mean of duplicate assays
[15] = target: ERK1 (p42) active (phospho), human, Active Motif 31 152 (human) (UniProt P27361); test: RPA standard curves
[16] = target: ERK1 (p44) inactive (GST tagged), human, Invitrogen PV 3312 (human) (UniProt P27361); test: RPA standard curves
[17] = target: ERK1 (p44), human, Cell Signaling Technology 7416 (human) (UniProt P27361); test: RPA standard curves
[18] = target: ERK1 (p44) active (GST tagged), human, Invitrogen PV 3311 (human) (UniProt P27361); test: RPA standard curves
[19] = target: Histone H3 recombinant protein, human, Upstate 14-494 (human) (UniProt P68431); test: RPA, competition: +free H3 peptide 1000 nM
[20] = target: pErk1/2-BSA 2.7x peptide-protein conjugate (human; bovine); test: RPA, competition: +free H3 peptide 1000 nM
[21] = target: pRb-BSA 1x peptide-protein conjugate (bovine); test: RPA, competition: +free H3 peptide 1000 nM
[22] = target: Erk1-BSA 2.7x peptide-protein conjugate (human; bovine); test: RPA, competition: +free H3 peptide 1000 nM
[23] = target: pRb recombinant protein, human, Active Motif 31 128 (human) (UniProt P06400); test: RPA, competition: +free H3 peptide 1000 nM
[24] = target: ERK1 (p42) active (phospho), human, Active Motif 31 152 (human) (UniProt P27361); test: RPA, competition: +free H3 peptide 1000 nM
[25] = target: Histone H3-BSA 2.7x peptide-protein conjugate (bovine); test: RPA, competition: +free H3 peptide 1000 nM
[26] = target: ERK1 (p44) inactive (GST tagged), human, Invitrogen PV 3312 (human) (UniProt P27361); test: RPA, competition: +free H3 peptide 1000 nM
[27] = target: ERK1 (p44), human, Cell Signaling Technology 7416 (human) (UniProt P27361); test: RPA, competition: +free H3 peptide 1000 nM
[28] = target: ERK2 (p42), human, Biosource PHO 0104 (human) (UniProt P28482); test: RPA, competition: +free H3 peptide 1000 nM
[29] = target: ERK1 (p44) active (GST tagged), human, Invitrogen PV 3311 (human) (UniProt P27361); test: RPA, competition: +free H3 peptide 1000 nM
[30] = target: Histone H3 recombinant protein, calf, Roche 11 034 758 001 (calf) (UniProt P68432); test: RPA, competition: +free H3 peptide 1000 nM
[31] = target: Histone H3 recombinant protein, human, Upstate 14-494 (human) (UniProt P68431); test: RPA standard curves, mean of duplicate assays
[32] = target: Histone H3-BSA 2.7x peptide-protein conjugate (bovine); test: RPA standard curves, mean of duplicate assays
[33] = target: Erk1-BSA 2.7x peptide-protein conjugate (human; bovine); test: RPA standard curve, assay 2, LOD back-calculated from one-site fit
[34] = target: ERK1 (p44) inactive (GST tagged), human, Invitrogen PV 3312 (human) (UniProt P27361); test: as above
[35] = target: Erk1-BSA 2.7x peptide-protein conjugate (human; bovine); test: RPA standard curves, mean of duplicate assays
[36] = target: ERK1 (p44) inactive (GST tagged), human, Invitrogen PV 3312 (human) (UniProt P27361); test: RPA standard curves, mean of duplicate assays
[37] = target: pErk1/2-BSA 2.7x peptide-protein conjugate (human; bovine); test: RPA, 8 point dilution series of the peptide standard in buffer, assay 1

Erk1-BSA 2.7x peptide-protein conjugate (human; bovine), sequence (peptide, as listed by the source limits assumed, chain 1 of 2): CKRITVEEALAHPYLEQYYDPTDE
Erk1-BSA 2.7x peptide-protein conjugate (human; bovine), sequence (P02769 25-607 limits assumed, chain 2 of 2): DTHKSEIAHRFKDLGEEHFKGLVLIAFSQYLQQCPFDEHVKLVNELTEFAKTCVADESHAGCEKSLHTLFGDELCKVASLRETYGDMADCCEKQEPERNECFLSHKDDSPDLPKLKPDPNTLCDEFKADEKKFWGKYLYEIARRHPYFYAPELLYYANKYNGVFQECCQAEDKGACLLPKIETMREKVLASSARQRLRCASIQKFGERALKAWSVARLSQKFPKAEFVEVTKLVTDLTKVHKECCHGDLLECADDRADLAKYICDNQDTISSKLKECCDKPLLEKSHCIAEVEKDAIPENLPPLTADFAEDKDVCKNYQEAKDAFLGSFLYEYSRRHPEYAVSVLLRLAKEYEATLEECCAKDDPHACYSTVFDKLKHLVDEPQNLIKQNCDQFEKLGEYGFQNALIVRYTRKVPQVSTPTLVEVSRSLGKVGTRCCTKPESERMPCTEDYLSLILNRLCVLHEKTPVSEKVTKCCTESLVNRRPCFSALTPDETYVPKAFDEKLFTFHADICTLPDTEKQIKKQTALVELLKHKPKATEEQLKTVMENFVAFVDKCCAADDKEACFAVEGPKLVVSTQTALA
Histone H3-BSA 2.7x peptide-protein conjugate (bovine), sequence (P02769 25-607 limits assumed): as the sequence (P02769 25-607 limits assumed, chain 2 of 2) above
pErk1/2-BSA 2.7x peptide-protein conjugate (human; bovine), sequence (P02769 25-607 limits assumed): as the sequence (P02769 25-607 limits assumed, chain 2 of 2) above
UniProt P28482, sequence (P28482 2-360 limits assumed): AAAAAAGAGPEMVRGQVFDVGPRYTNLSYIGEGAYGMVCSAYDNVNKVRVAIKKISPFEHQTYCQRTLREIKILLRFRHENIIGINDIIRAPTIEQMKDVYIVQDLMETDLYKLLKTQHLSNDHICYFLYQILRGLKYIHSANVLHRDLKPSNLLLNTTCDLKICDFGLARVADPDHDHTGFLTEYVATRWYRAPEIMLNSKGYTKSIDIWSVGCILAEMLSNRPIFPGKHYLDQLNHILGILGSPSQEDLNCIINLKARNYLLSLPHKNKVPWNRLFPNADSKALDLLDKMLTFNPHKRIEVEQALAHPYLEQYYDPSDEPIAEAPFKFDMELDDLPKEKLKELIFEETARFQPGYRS
pRb-BSA 1x peptide-protein conjugate (bovine), sequence (P02769 25-607 limits assumed): as the sequence (P02769 25-607 limits assumed, chain 2 of 2) above
UniProt P06400, sequence (P06400 whole entry): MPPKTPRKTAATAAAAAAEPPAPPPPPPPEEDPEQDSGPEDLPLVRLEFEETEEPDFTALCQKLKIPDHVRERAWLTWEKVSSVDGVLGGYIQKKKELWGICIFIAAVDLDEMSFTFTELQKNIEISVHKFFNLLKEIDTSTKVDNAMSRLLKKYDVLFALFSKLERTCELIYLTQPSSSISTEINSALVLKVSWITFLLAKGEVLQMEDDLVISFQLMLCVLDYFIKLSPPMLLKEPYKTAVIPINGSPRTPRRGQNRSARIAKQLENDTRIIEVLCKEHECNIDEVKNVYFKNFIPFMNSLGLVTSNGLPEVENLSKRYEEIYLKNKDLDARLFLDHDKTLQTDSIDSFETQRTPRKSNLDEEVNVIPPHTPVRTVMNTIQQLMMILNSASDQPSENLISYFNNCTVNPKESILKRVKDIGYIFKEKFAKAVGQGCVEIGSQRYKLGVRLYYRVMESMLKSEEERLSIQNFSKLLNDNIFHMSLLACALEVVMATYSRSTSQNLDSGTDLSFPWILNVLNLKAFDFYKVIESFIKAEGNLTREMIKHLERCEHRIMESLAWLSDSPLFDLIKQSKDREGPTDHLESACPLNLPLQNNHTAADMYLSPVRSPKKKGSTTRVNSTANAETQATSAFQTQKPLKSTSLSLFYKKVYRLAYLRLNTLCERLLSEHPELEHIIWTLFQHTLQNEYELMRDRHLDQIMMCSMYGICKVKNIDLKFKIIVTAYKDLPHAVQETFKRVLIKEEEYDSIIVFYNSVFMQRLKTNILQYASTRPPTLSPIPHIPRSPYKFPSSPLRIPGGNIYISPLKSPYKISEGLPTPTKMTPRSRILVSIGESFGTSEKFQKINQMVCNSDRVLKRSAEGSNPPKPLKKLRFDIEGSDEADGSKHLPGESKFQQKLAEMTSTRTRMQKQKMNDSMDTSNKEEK

LOD [1]: 0.032 nM
maximum standard curve signal [2]: < 0.01 RFI
maximum standard curve signal [3]: 0.45 RFI
maximum standard curve signal [4]: 0.01 RFI
maximum standard curve signal [5]: 0.02 RFI
maximum standard curve signal [6]: 0.01 RFI
maximum standard curve signal [7]: 0.01 RFI
maximum standard curve signal [8]: 0.1 RFI
maximum standard curve signal [9]: 0.01 RFI
maximum standard curve signal [10]: < 0.01 RFI
maximum standard curve signal [11]: 0.01 RFI
maximum standard curve signal [12]: 0.01 RFI
maximum standard curve signal [13]: 0.01 RFI
mean LOD [14]: 0.03 nM
signal relative to pErk1 protein (Invitrogen) [15]: 12%
signal relative to pErk1 protein (Invitrogen) [16]: 3%
signal relative to pErk1 protein (Invitrogen) [17]: 11%
signal intensity relative to the pErk1/2-BSA peptide standard [18]: 25%
Substance: p44/42 MAPK phospho (pERK1/2) Thr202/Tyr204 antibody, Cell Signaling Technology #9101

maximum standard curve signal [19]: 1.13 RFI
maximum standard curve signal [20]: < 0.01 RFI
maximum standard curve signal [21]: < 0.01 RFI
maximum standard curve signal [22]: < 0.01 RFI
maximum standard curve signal [23]: < 0.01 RFI
maximum standard curve signal [24]: < 0.01 RFI
maximum standard curve signal [25]: 1.41 RFI
maximum standard curve signal [26]: 0.01 RFI
maximum standard curve signal [27]: < 0.01 RFI
maximum standard curve signal [28]: < 0.01 RFI
maximum standard curve signal [29]: < 0.01 RFI
maximum standard curve signal [30]: 0.04 RFI
mean LOD [31]: 0.156 nM
mean LOD [32]: 0.123 nM
Substance: Histone H3 antibody, Abcam ab1791

LOD [33]: 0.046 nM
LOD [34]: 0.084 nM
mean LOD [35]: 0.046 nM
mean LOD [36]: 0.072 nM
mean signal (standard curve) [37]: 0.01 RFI
Substance: p44/42 MAPK (Erk1/2) antibody, Biosource 44-654G
